From patent publication US20130209454A1

What was measured:
Assay in all cases: cell-based or functional assay
[1] = molecular target: HIV-1 Env of strain CNE17 (HIV-1)
[2] = molecular target: HIV-1 Env of strain WITO4160.33 (HIV-1)
[3] = molecular target: HIV-1 Env of strain Du422.1 (HIV-1)
[4] = molecular target: HIV-1 Env of strain THRO4156.18 (HIV-1)
[5] = molecular target: HIV-1 Env of strain T255-34 (HIV-1)
[6] = molecular target: HIV-1 Env of strain CAAN5342.A2 (HIV-1)
[7] = molecular target: HIV-1 Env of strain CNE20 (HIV-1)
[8] = molecular target: HIV-1 Env of strain 89-F1_2_25 (HIV-1)
[9] = molecular target: HIV-1 Env of strain CNE58 (HIV-1)
[10] = molecular target: HIV-1 Env of strain R2184.c04 (HIV-1)
[11] = molecular target: HIV-1 Env of strain Ce2010_F5 (HIV-1)
[12] = molecular target: HIV-1 Env of strain ZM214M.PL15 (HIV-1)
[13] = molecular target: HIV-1 Env of strain 6811.v7.c18 (HIV-1)
[14] = molecular target: HIV-1 Env of strain C3347.c11 (HIV-1)
[15] = molecular target: HIV-1 Env of strain 3817.v2.c59 (HIV-1)
[16] = molecular target: HIV-1 Env of strain SC422661.8 (HIV-1)
[17] = molecular target: HIV-1 Env of strain C2101.c01 (HIV-1)
[18] = molecular target: HIV-1 Env of strain Q259.d2.17 (HIV-1)
[19] = molecular target: HIV-1 Env of strain Ce2060_G9 (HIV-1)
[20] = molecular target: HIV-1 Env of strain Q23.17 (HIV-1)
[21] = molecular target: HIV-1 Env of strain HIV-16845-2.22 (HIV-1)
[22] = molecular target: HIV-1 Env of strain 231965.c01 (HIV-1)
[23] = molecular target: HIV-1 Env of strain CNE21 (HIV-1)

Binder | IC50, pseudovirus neutralization [1] | IC50, pseudovirus neutralization [2] | IC50, pseudovirus neutralization [3] | IC50, pseudovirus neutralization [4] | IC50, pseudovirus neutralization [5] | IC50, pseudovirus neutralization [6] | IC50, pseudovirus neutralization [7] | IC50, pseudovirus neutralization [8] | IC50, pseudovirus neutralization [9] | IC50, pseudovirus neutralization [10] | IC50, pseudovirus neutralization [11] | IC50, pseudovirus neutralization [12] | IC50, pseudovirus neutralization [13] | IC50, pseudovirus neutralization [14] | IC50, pseudovirus neutralization [15] | IC50, pseudovirus neutralization [16] | IC50, pseudovirus neutralization [17] | IC50, pseudovirus neutralization [18] | IC50, pseudovirus neutralization [19] | IC50, pseudovirus neutralization [20] | other results
NIH45-46^G54W (antibody, V domains shown) VH: QVRLSQSGGQMKKPGESMRLSCRASGYEFLNCPINWIRLAPGRRPEWMGWLKPRWGAVNYARKFQGRVTMTRDVYSDTAFLELRSLTSDDTAVYFCTRGKYCTARDYYNWDFEHWGRGAPVTVSS VL: EIVLTQSPATLSLSPGETAIISCRTSQSGSLAWYQQRPGQAPRLVIYSGSTRAAGIPDRFSGSRWGADYNLSISNLESGDFGVYYCQQYEFFGQGTKVQVDI | 0.036 µg/mL | 0.01 µg/mL | > 50 µg/mL | 0.54 µg/mL | 0.001 µg/mL | 0.07 µg/mL | 0.04 µg/mL | > 50 µg/mL | 0.02 µg/mL | 0.005 µg/mL | 0.038 µg/mL | 0.03 µg/mL | 0.001 µg/mL | 0.001 µg/mL | > 50 µg/mL | 0.02 µg/mL | 0.04 µg/mL | 0.001 µg/mL | 0.005 µg/mL | 0.01 µg/mL | IC50, pseudovirus neutralization [21]: 0.45 µg/mL; IC50, pseudovirus neutralization [22]: 0.001 µg/mL; IC50, pseudovirus neutralization [23]: 0.03 µg/mL
NIH45-46^G54W(HC), S28Y(LC) (antibody, V domains shown) VH: QVRLSQSGGQMKKPGESMRLSCRASGYEFLNCPINWIRLAPGRRPEWMGWLKPRWGAVNYARKFQGRVTMTRDVYSDTAFLELRSLTSDDTAVYFCTRGKYCTARDYYNWDFEHWGRGAPVTVSS VL: EIVLTQSPATLSLSPGETAIISCRTSQYGSLAWYQQRPGQAPRLVIYSGSTRAAGIPDRFSGSRWGADYNLSISNLESGDFGVYYCQQYEFFGQGTKVQVDI | 0.064 µg/mL | 0.015 µg/mL | 8.47 µg/mL | 0.685 µg/mL | 0.013 µg/mL | 0.078 µg/mL | 0.001 µg/mL | > 50 µg/mL | 0.016 µg/mL | 0.008 µg/mL | 0.03 µg/mL | 0.036 µg/mL | 0.026 µg/mL | 0.007 µg/mL | 5.14 µg/mL | 0.024 µg/mL | 0.044 µg/mL | 0.001 µg/mL | 0.014 µg/mL | 0.015 µg/mL | IC50, pseudovirus neutralization [21]: 0.38 µg/mL; IC50, pseudovirus neutralization [22]: 0.001 µg/mL; IC50, pseudovirus neutralization [23]: 0.001 µg/mL
